± gives the uncertainty stated by the source.

This data set can be described thus: protein stability index of a GFP-peptide fusion (yeast GPS) (PSI 1-4); higher = more stable; sorted into four equal gates, so the index is relative within each strain. The gist of the method:
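Sequencing reads from sorted gates were used to score each peptide. The library consisted of tiled 17-residue yeast protein peptides fused downstream of GFP on a Cherry-expressing plasmid, pooled and carried in yeast. Mid-log cultures in leucine-free medium were split into four equal gates by GFP/Cherry ratio, and each gate's plasmids were PCR-amplified and Illumina-sequenced. The protein stability index adds up, over all gates, the read frequency multiplied by the gate number.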

With QTIMKMGPLSNIAQMIP [SRP54], the protein stability index is, setting by setting: (doa10∆) 2.6 ± 0.081; (pdr5∆) 2.67 ± 0.068; (san1∆) 2.58 ± 0.08; (ubr1∆) 2.99 ± 0.07.
On to DLNNAVQKRDEVKEQLG [SMC4], for which the protein stability index was 2.95 ± 0.055 (doa10∆), 2.99 ± 0.056 (pdr5∆), 3.15 ± 0.046 (san1∆) and 2.83 ± 0.042 (ubr1∆).
In the same order, the values of SGIRLIEPELFNGYNPE [FAS2] are 2.81 ± 0.067, 2.89 ± 0.074, 2.82 ± 0.073 and 2.83 ± 0.045.
For the sequence LVQKFGGADQVTRTQQW [SWI1], the protein stability index is, setting by setting: (doa10∆) 3.08 ± 0.13; (pdr5∆) 3.06 ± 0.088; (san1∆) 2.88 ± 0.13; (ubr1∆) 2.78 ± 0.076.
The corresponding values for YNGFIDIFSNLSSDDLL [YCS4] are 3.16 ± 0.044, 2.99 ± 0.066, 3.28 ± 0.056 and 3.08 ± 0.037.
Consider EFFSTNWLSIFNDFSNI [REC8], for which the protein stability index runs as follows: (doa10∆) 2.83 ± 0.075; (pdr5∆) 2.91 ± 0.067; (san1∆) 2.09 ± 0.098; (ubr1∆) 2.83 ± 0.08.
The corresponding values for IFWGIRLAKSTENEIPN [BRR2] are 1.42 ± 0.089, 1.43 ± 0.055, 1.18 ± 0.13 and 1.49 ± 0.064.
Consider MGGVSALRGMFKDRFKD [FAS2], for which the protein stability index is, setting by setting: (doa10∆) 3.56 ± 0.068; (pdr5∆) 3.55 ± 0.067; (san1∆) 3.41 ± 0.059; (ubr1∆) 3.54 ± 0.069.
As to DILAKLFSLEKPNLNYF [SWI1], the protein stability index worked out at 2.02 ± 0.056 (doa10∆), 1.96 ± 0.05 (pdr5∆), 1.96 ± 0.063 (san1∆) and 2.08 ± 0.044 (ubr1∆).
The sequence DIIWLQRDLGLYVVGLF [RRP6] registered a protein stability index (doa10∆) of 2.27 ± 0.062, a protein stability index (pdr5∆) of 2.22 ± 0.099, a protein stability index (san1∆) of 1.4 ± 0.1 and a protein stability index (ubr1∆) of 2.29 ± 0.12.
The corresponding values for SEGEQKSAEGNNIDQSL [YAR002W/NUP60] are 2.98 ± 0.063, 2.94 ± 0.048, 2.94 ± 0.066 and 3.05 ± 0.065.
In the same order, the values of QNIKAPSVKRQKMAELE [PRP8] are 3.29 ± 0.088, 3.25 ± 0.07, 3.3 ± 0.074 and 3.29 ± 0.077.
In the same order, the values of DSTIGNSKVDMKYDIFA [IRR1] are 2.82 ± 0.071, 2.78 ± 0.082, 2.71 ± 0.078 and 2.88 ± 0.06.
Consider TEYGRKYNVNISALTQT [PRP8], for which the protein stability index (doa10∆) worked out at 2.07 ± 0.14, the protein stability index (pdr5∆) is 2.53 ± 0.093, the protein stability index (san1∆) turned out to be 2.94 ± 0.14 and the protein stability index (ubr1∆) was 2.5 ± 0.047.
On to AILYTKPGHVLQEEWDQ [YGR119C/NUP57], for which the protein stability index reads like this: (pdr5∆) 3.25 ± 0.14; (ubr1∆) 3.81 ± 0.23.
The sequence SARGIETRPAQVILPMS [FAS2] came in with a protein stability index (doa10∆) of 3.06 ± 0.08, a protein stability index (pdr5∆) of 2.93 ± 0.073, a protein stability index (san1∆) of 3 ± 0.068 and a protein stability index (ubr1∆) of 3.16 ± 0.082.
For SIVLDSEHFDVNDNPDI [DIS3], the protein stability index is, setting by setting: (doa10∆) 2.96 ± 0.053; (pdr5∆) 3.11 ± 0.053; (san1∆) 2.74 ± 0.093; (ubr1∆) 3.1 ± 0.046.
In the same order, the values of KARTNLHQHVVLKCLKS [RPC34] are 2.91 ± 0.19, 2.64 ± 0.16, 2.33 ± 0.14 and 2.23 ± 0.23.
The corresponding values for NEDDLTVKLTEIVWTSS [RPO31] are 2.89 ± 0.093, 3.04 ± 0.09, 3.01 ± 0.074 and 3.14 ± 0.059.
In turn, LPPEKIYSPLHSFIKML [SIR2] displayed a protein stability index (doa10∆) of 1.65 ± 0.034, a protein stability index (pdr5∆) of 1.88 ± 0.032, a protein stability index (san1∆) of 1.72 ± 0.05 and a protein stability index (ubr1∆) of 1.71 ± 0.032.
As for VKPHDEGSKSHPFGHAL [RPL27A], the protein stability index worked out at 2.95 ± 0.064 (doa10∆), 2.97 ± 0.053 (pdr5∆), 2.88 ± 0.08 (san1∆) and 3.1 ± 0.047 (ubr1∆).
The corresponding values for LGNHAITIDSVVDANGC [YMR129W/POM152] are 2.42 ± 0.096, 1.95 ± 0.08, 2.56 ± 0.07 and 2.79 ± 0.085.
The corresponding values for GKIDEAADILCELQVET [RPN5] are 3.06 ± 0.12, 3.25 ± 0.15, 3.1 ± 0.061 and 3.46 ± 0.095.
The corresponding values for LVAAFIASLERELILAK [YCG1] are 1.79 ± 0.065, 2.21 ± 0.092, 1.93 ± 0.081 and 1.48 ± 0.053.
As for RSNGSVASLSKRNKLLT [YJL039C/NUP192], the protein stability index by setting is: (doa10∆) 1.73 ± 0.1; (pdr5∆) 1.55 ± 0.068; (san1∆) 2.1 ± 0.12; (ubr1∆) 1.54 ± 0.062.
On to QKETQKVTKIWSKESNY [PRP28], for which the protein stability index is, setting by setting: (doa10∆) 1.63 ± 0.04; (pdr5∆) 2.1 ± 0.041; (san1∆) 2.3 ± 0.047; (ubr1∆) 1.95 ± 0.027.
In the same order, the values of RETNDDIWRVAGKFELL [SNF2] are 2.54 ± 0.067, 2.26 ± 0.065, 2.43 ± 0.076 and 2.8 ± 0.066.
For EPTYRLVRYGLAEKVEK [RPS24A], the protein stability index runs as follows: (doa10∆) 3.48 ± 0.19; (pdr5∆) 3.42 ± 0.2; (ubr1∆) 3.12 ± 0.19.
For the sequence PFGAKSTKSNKTRNPLT [RPL8A], the protein stability index is, setting by setting: (doa10∆) 2.73 ± 0.072; (pdr5∆) 2.99 ± 0.062; (san1∆) 2.88 ± 0.057; (ubr1∆) 2.8 ± 0.056.
LQLETPAEVGRAIRSEK [BRR2]: the protein stability index (doa10∆) is 2.08 ± 0.11, the protein stability index (pdr5∆) came out at 2.92 ± 0.063 and the protein stability index (san1∆) was 1.66 ± 0.11.
Regarding ALKKSRSKGKQNRPYNH [RPC17], the protein stability index is, setting by setting: (doa10∆) 3.04 ± 0.093; (pdr5∆) 2.46 ± 0.1; (san1∆) 2.5 ± 0.1; (ubr1∆) 2.42 ± 0.091.
The corresponding values for ESTETGYVIKVFNNGIV [DIS3] are 2.34 ± 0.19, 3.08 ± 0.21, 2.13 ± 0.14 and 1.21 ± 0.24.
Turning to GLSVTQKVFVRSRNGGA [DIS3], the protein stability index is 1.46 ± 0.071 (doa10∆), 1.32 ± 0.065 (pdr5∆), 1.4 ± 0.15 (san1∆) and 1.62 ± 0.063 (ubr1∆).
Consider SKALNSILESSMFLRID [RGR1], for which the protein stability index reads like this: (doa10∆) 2.42 ± 0.16; (pdr5∆) 2.67 ± 0.11; (san1∆) 2.08 ± 0.11; (ubr1∆) 2.83 ± 0.082.
The corresponding values for LKTLTHKQIHTTIFVKS [POP7] are 1.94 ± 0.036, 2.07 ± 0.038, 1.77 ± 0.063 and 1.82 ± 0.029.
Regarding ELADLPKLKRIGLVKCT [GRR1], the protein stability index (doa10∆) came to 2.82 ± 0.085, the protein stability index (pdr5∆) is 2.71 ± 0.051, the protein stability index (san1∆) is 2.28 ± 0.088 and the protein stability index (ubr1∆) was found to be 2.88 ± 0.087.
The corresponding values for NTQDLLLLLSLFKKITN [YML103C/NUP188] are 1.26 ± 0.038, 1.3 ± 0.033, 1.58 ± 0.068 and 1.55 ± 0.036.
For the sequence FNQRDGEHEKSNILLNS [MED1], the protein stability index by setting is: (doa10∆) 2.4 ± 0.087; (pdr5∆) 1.96 ± 0.11; (san1∆) 2.99 ± 0.17; (ubr1∆) 3.21 ± 0.11.
As to KKALKVRTSATFRLPKT [RPL25], the protein stability index was found to be 2.87 ± 0.13 (doa10∆) and 3.18 ± 0.13 (ubr1∆).

Source of the values: the supplement of paper PMC9732359.
